Results from patent US20210338848A1, “COMPOSITIONS AND METHODS FOR DIAGNOSING AND TREATING MACROPHAGE-RELATED DISORDERS USING CARBOHYDRATE-BASED MACR[…]” (Cardinal Health 414, LLC, priority 2016, published 2021).

What was measured:
[1] = used to stage breast cancer and melanoma; cited from earlier work
mannose receptor CD206 = mannose receptor CD206 (Homo sapiens, UniProt P22897); conditions: when administered to mammals; no other receptors bind or transduce
Description: CD206 is a C-type […] binding protein found on the surface of macrophages.

Sequence of mannose receptor CD206 (P22897 19-1456): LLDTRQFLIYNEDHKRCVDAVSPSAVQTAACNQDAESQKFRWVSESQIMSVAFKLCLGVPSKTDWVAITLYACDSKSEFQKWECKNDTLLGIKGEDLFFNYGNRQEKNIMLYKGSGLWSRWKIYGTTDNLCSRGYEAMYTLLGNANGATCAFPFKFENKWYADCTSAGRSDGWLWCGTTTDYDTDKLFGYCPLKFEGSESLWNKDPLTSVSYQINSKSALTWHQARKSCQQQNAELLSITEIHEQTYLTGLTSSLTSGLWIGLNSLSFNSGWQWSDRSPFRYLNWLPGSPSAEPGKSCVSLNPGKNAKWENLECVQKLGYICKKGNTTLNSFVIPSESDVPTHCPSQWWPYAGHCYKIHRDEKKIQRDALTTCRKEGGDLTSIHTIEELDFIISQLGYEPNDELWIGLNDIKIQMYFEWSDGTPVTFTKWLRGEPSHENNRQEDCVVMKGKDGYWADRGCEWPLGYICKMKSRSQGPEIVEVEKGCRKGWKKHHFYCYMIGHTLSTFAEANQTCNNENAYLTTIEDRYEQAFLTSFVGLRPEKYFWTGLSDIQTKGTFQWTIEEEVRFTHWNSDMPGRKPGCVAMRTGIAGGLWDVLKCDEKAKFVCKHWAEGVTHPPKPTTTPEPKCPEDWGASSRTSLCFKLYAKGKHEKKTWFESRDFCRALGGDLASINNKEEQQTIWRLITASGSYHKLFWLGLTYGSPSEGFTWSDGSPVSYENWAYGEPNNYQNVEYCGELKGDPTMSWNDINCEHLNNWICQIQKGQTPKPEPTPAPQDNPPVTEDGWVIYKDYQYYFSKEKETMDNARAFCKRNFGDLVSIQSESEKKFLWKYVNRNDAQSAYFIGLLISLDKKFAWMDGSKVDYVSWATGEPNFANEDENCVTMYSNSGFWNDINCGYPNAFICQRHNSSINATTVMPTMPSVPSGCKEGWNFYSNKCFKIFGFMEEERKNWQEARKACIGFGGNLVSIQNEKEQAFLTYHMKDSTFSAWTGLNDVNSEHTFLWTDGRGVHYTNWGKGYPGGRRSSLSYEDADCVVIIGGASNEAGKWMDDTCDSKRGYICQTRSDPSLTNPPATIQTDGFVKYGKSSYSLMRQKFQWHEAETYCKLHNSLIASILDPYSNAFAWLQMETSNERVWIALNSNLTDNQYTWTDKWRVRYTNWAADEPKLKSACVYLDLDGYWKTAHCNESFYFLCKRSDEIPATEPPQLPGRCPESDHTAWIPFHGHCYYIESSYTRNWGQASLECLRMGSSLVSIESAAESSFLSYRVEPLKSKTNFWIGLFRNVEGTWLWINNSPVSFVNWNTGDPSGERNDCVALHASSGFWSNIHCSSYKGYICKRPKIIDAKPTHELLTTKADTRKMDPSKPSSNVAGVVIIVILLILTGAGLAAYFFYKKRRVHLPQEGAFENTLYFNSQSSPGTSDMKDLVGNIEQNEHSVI

Row | Substance | clearance from injection site [1] | uptake by distal or second-echelon lymph nodes [1] | uptake by sentinel lymph node(s) [1] | receptor binding specificity (mannose receptor CD206)
1 | technetium Tc 99m, dextran 3-[(2-aminoethyl)thio]propyl 17-carboxy-10,13,16-tris(carboxymethyl)-8-oxo-4-thia-7,10,13,16-tetraazaheptadec-1-yl 3-[[2-[[1-imino-2-(D-mannopyranosylthio) ethyl]amino]ethyl]thio]propyl ether complexes [technetium Tc 99m labeled tilmanocept] | rapid clearance from an injection site | low uptake by distal or second-echelon lymph nodes | rapid and sustained uptake by the sentinel lymph node(s) | –
2 | dextran 3-[(2-aminoethyl)thio]propyl 17-carboxy-10,13,16-tris(carboxymethyl)-8-oxo-4-thia-7,10,13,16-tetraazaheptadec-1-yl 3-[[2-[[1-imino-2-(D-mannopyranosylthio) ethyl]amino]ethyl]thio]propyl ether complexes [tilmanocept] | – | – | – | bind exclusively to the mannose receptor CD206
